Experiment [1] deals with T1, canine IL-31 protein (Canine_IL31) (canine).
T1 chain: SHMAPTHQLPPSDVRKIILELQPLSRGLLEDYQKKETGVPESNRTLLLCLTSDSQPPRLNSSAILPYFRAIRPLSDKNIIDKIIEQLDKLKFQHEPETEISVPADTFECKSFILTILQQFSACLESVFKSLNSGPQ
Briefly: SPR (Biacore), IL-31 on chip, 1:1 fit. In general terms: In SPR one partner is held on a chip, and binding of the other changes the refractive index at the surface.

The target in experiment [2] is T2, wildtype feline IL-31 protein (Feline_IL31_wildtype) (feline).
T2 construct: Full length feline IL-31 with C-terminal His tag, secreted from ExpiCHO cells; also called fIL-31
T2 chain: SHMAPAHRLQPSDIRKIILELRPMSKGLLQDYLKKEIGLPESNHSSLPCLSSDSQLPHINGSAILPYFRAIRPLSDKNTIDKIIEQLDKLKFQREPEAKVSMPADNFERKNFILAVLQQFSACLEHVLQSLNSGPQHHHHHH
As to the kind of experiment: SPR (Biacore), IL-31 on chip, 1:1 fit. The procedure:
The affinity with which candidate mAbs bind canine and feline IL-31 was determined using surface plasmon resonance (SPR) on a Biacore system (Biocore Life Sciences (GE Healthcare), Uppsala, Sweden). To avoid affinity differences associated with differential surface preparation that can occur when immobilizing antibodies to surfaces; a strategy was employed where IL-31 was directly conjugated to the surface. Immobilization was obtained by amine coupling 5 μg/mL IL-31 using N-hydroxysuccinimide (NHS)/1-Ethyl-3-(3-dimethylaminopropyl) carbodiimide (EDC) chemistry. Chips were quenched with ethanolamine and the affinity with which all candidate mAbs bound to the immobilized IL-31 was evaluated. All curves were fit to a 1:1 model. […] Results for affinity measurements are described herein.

Changes are numbered by the printed parent chain. In names and notes the source's numbering stands.

B1: Feline 15H05 VH1 mouse VL (antibody, V domains shown)
VH: QVLLVQSGAEVRTPGASVKIFCKASGYSFTSYTIHWLRQAPAQGLEWMGNINPTSGYTENNQRFKDRLTLTADTSTNTAYMELSSLRSADTAMYYCARWGFKYDGEWSFDVWGAGTTVTVSS
VL: DIQMNQSPSSLSASLGDTITVTCRASQGISIWLSWYQQKPGNIPKVLINKASNLHIGVPPRFSGSGSGTHFTLTITSLQPEDIATYYCLQSQTYPLTFGGGTKLEIN
notes: Heterochimeric antibody; also called felinized 15H05 VH1 with mouse 15H05 VL (heterochimera)
The koff is the rate constant with which the complex falls apart. The term kon denotes the second-order rate constant of association. Read a high kon as faster complex formation. As a reminder, the Kd is the constant that tells how readily two partners part at equilibrium. For B1, in experiment [1], the koff stood at 2.66e-07 s⁻¹ and the kon was determined as 108000 M⁻¹ s⁻¹. In experiment [2], this molecule showed a Kd of 0.168 nM, a koff of 2.2e-05 s⁻¹ and a kon of 131000 M⁻¹ s⁻¹.

B2: Feline 15H05 1.1 FW1_3 (antibody, V domains shown)
VH: B1 VH
VL: B1 VL with N42K, I43V, V46L, N49Y, N107K
notes: Printed as 'Feline 15H05 1.1 FW13'
In experiment [1], B2 yielded a koff of 2.88e-08 s⁻¹ and a kon of 6590 M⁻¹ s⁻¹. In experiment [2], this molecule yielded a Kd of 0.0674 nM, a koff of 3.02e-05 s⁻¹ and a kon of 448000 M⁻¹ s⁻¹.

B3: Feline 15H05 1.2 (antibody, V domains shown)
VH: B1 VH
VL: EITMTQSPGSLAGSPGQQVTMNCRASQGISIWLSWYQQKPGQHPKLLIYKASNLHIGVPDRFSGSGSGTDFTLTISNLQAEDVASYYCLQSQTYPLTFGGGTKLEIK
notes: Feline heavy and kappa constant regions
In experiment [1], B3 came in with a koff of 0.000115 s⁻¹ and a kon of 33000 M⁻¹ s⁻¹. In experiment [2], this molecule had a Kd of 104 nM, a koff of 0.00147 s⁻¹ and a kon of 14100 M⁻¹ s⁻¹.

B4: Feline 15H05 VH2 mouse VL (antibody, V domains shown)
VH: B1 VH with S28G, L37V, A40S
VL: B1 VL
notes: also called felinized 15H05 VH2 with mouse 15H05 VL (heterochimera)
In experiment [1], B4 showed a koff of 0.000379 s⁻¹ and a kon of 171000 M⁻¹ s⁻¹. In addition, in experiment [2], binding was characterised by a dissociation constant (Kd) of 1.61 nM, the koff came to 5.47e-05 s⁻¹ and the kon amounted to 34000 M⁻¹ s⁻¹.

B5: Feline 15H05 VH3 mouse VL (antibody, V domains shown)
VH: B1 VH with T13K, A42E
VL: B1 VL
notes: Heterochimeric antibody; also called felinized 15H05 VH3 with mouse 15H05 VL (heterochimera)
B5: in experiment [1], the koff amounted to 2.64e-07 s⁻¹ and the kon worked out at 100000 M⁻¹ s⁻¹. In experiment [2], binding was put at a Kd of 0.177 nM, the koff was found to be 1.57e-05 s⁻¹ and the kon was found to be 88900 M⁻¹ s⁻¹.

B6: Feline 15H05 2.2 (antibody, V domains shown)
VH: B1 VH with S28G, L37V, A40S
VL: B3 VL
notes: as for B3
In experiment [1], B6 displayed a koff of 1.09e-05 s⁻¹ and a kon of 27700 M⁻¹ s⁻¹. In experiment [2], this molecule showed a Kd of 2.15 nM, a koff of 0.00195 s⁻¹ and a kon of 905000 M⁻¹ s⁻¹.

B7: Feline 15H05 3.2 (antibody, V domains shown)
VH: B1 VH with T13K, A42E
VL: B3 VL
notes: as for B3
In experiment [1], B7 gave a koff of 6.04e-06 s⁻¹ and a kon of 29700 M⁻¹ s⁻¹. In experiment [2], this molecule registered a Kd of 12.6 nM, a koff of 0.00166 s⁻¹ and a kon of 132000 M⁻¹ s⁻¹.

B8: Feline_11E12 1.1_K46Q (antibody, V domains shown)
VH: QVLLVQSGAEVKKPGASVKIFCKASGYSFTYYDINWLRQAPEQGLEWMGWIFPGDGGTKYNETFKGRLTLTADTSTNTVYMELSSLRSADTAMYYCARGGTSVIRDAMDYWGQGALVTVSS
VL: EIQMTQSPSSLSASPGDRVTITCRASESVDNYGISFMHWYQQKPGQVPKLLIYRASNLESGVPSRFSGSGSGTDFTLTISSLEPEDAATYYCQQSNKDPLTFGQGTKLEIK
notes: felinized 11E12 with the single VL substitution K46Q; copies: 2 + 2
In experiment [1], B8 displayed a koff of 8.85e-05 s⁻¹ and a kon of 46400 M⁻¹ s⁻¹. In experiment [2], this molecule displayed a Kd of 12.6 nM, a koff of 0.000145 s⁻¹ and a kon of 11500 M⁻¹ s⁻¹.

The record behind these values is patent publication US20250136677A1 (ZOETIS SERVICES, published 2025).
